Measured values taken from patent US20210292396A1.

Experiments:
Assay in all cases: cell-based or functional assay
[1] = target: Env of HIV isolate 001428-2.42 (clade C) (HIV)
[2] = target: Env of HIV isolate 0260.v5.c36 (clade A) (HIV)
[3] = target: Env of HIV isolate 3365.v2.c20 (clade A) (HIV)
[4] = target: Env of HIV isolate 3415.v1.c1 (clade A) (HIV)
[5] = target: Env of HIV isolate 3718.v3.c11 (clade A) (HIV)
[6] = target: Env of HIV isolate 3817.v2.c59 (clade CD) (HIV)
[7] = target: Env of HIV isolate 3988.25 (clade B) (HIV)
[8] = target: Env of HIV isolate 5768.04 (clade B) (HIV)
[9] = target: Env of HIV isolate 6540.v4.c1 (clade AC) (HIV)
[10] = target: Env of HIV isolate BJOX009000.02.4 (clade AE) (HIV)
[11] = target: Env of HIV isolate BJOX010000.06.2 (clade AE) (HIV)
[12] = target: Env of HIV isolate BR025.9 (clade C) (HIV)
[13] = target: Env of HIV isolate BR07.DG (clade B) (HIV)
[14] = target: Env of HIV isolate BX08.16 (clade B) (HIV)
[15] = target: Env of HIV isolate C1080.c3 (clade AE) (HIV)
[16] = target: Env of HIV isolate CAP45.G3 (clade C) (HIV)
[17] = target: Env of HIV isolate CH038.12 (clade BC) (HIV)
[18] = target: Env of HIV isolate CH181.12 (clade BC) (HIV)
[19] = target: Env of HIV isolate CNE10 (clade B) (HIV)
[20] = target: Env of HIV isolate CNE21 (clade BC) (HIV)
[21] = target: Env of HIV isolate JRCSF.JB (clade B) (HIV)
[22] = target: Env of HIV isolate MI369.A5 (clade A) (HIV)
[23] = target: Env of HIV isolate MW965.26 (clade C) (HIV)
[24] = target: Env of HIV isolate R3265.c6 (clade AE) (HIV)
[25] = target: Env of HIV isolate T255-34 (clade AG) (HIV)
[26] = target: Env of HIV isolate T266-60 (clade AG) (HIV)
[27] = target: Env of HIV isolate T33-7 (clade AG) (HIV)
[28] = target: Env of HIV isolate TH023.6 (clade AE) (HIV)
[29] = target: Env of HIV isolate X1193.c1 (clade G) (HIV)
[30] = target: Env of HIV isolate X2278.C2.B6 (clade B) (HIV)
[31] = target: Env of HIV isolate ZM106.9 (clade C) (HIV)
[32] = target: Env of HIV isolate ZM197.7 (clade C) (HIV)
[33] = target: Env of HIV isolate ZM55.28a (clade C) (HIV)
[34] = target: HIV Env of isolate 001428-2.42 (HIV)
[35] = target: HIV Env of isolate 16055-2.3 (HIV)
[36] = target: HIV Env of isolate 288.38 (HIV)
[37] = target: HIV Env of isolate 3168.v4.c10 (HIV)
[38] = target: HIV Env of isolate 3326.v4.c3 (HIV)
[39] = target: HIV Env of isolate 6471.v1.c16 (HIV)
[40] = target: HIV Env of isolate 6631.v3.c10 (HIV)
[41] = target: HIV Env of isolate 96ZM651.02 (HIV)
[42] = target: HIV Env of isolate BR025.9 (HIV)
[43] = target: HIV Env of isolate CNE40 (HIV)
[44] = target: HIV Env of isolate CNE53 (HIV)
[45] = target: HIV Env of isolate DU156.12 (HIV)
[46] = target: HIV Env of isolate UG024.2 (HIV)
[47] = target: HIV Env of isolate X2088.c9 (HIV)
[48] = target: HIV Env of isolate ZA012.29 (HIV)
[49] = target: HIV Env of isolate ZM135.10a (HIV)
[50] = target: HIV Env of isolate ZM233.6 (HIV)

B1: ePGT121.18 (ePGT121.18.H1 VH and ePGT121.17.L1 VL) (antibody, V domains shown)
VH: QMQLQESGPGLVKPGETLSLTCSVSGASISSSYWSWLRETPGKGLEWIGYTHHSGDTNYAPSLKSRVHLGLHPSKNQVSLSLTSVTAADTAVYYCARTLHGRRIYGVVAFNEYYTYFYWPTWGKGTQVTVSS
VL: SDISVAPGETVRITCGGESIGSRAVQWYQHRPGQAPRLIIYNNQDRPPGIPERFSGSPDIDFGTTATLTISNVEAGDEATYYCHIWDSRRPTNWELGPGTTLTVL
IC50, pseudovirus neutralization [1]: 1 ng/mL
IC50, pseudovirus neutralization [2]: 2 ng/mL
IC50, pseudovirus neutralization [3]: 4 ng/mL
IC50, pseudovirus neutralization [4]: 6 ng/mL
IC50, pseudovirus neutralization [5]: 267 ng/mL
IC50, pseudovirus neutralization [6]: 546 ng/mL
IC50, pseudovirus neutralization [7]: 3 ng/mL
IC50, pseudovirus neutralization [8]: 4 ng/mL
IC50, pseudovirus neutralization [9]: > 50000 ng/mL
IC50, pseudovirus neutralization [10]: 42 ng/mL
IC50, pseudovirus neutralization [11]: > 50000 ng/mL
IC50, pseudovirus neutralization [12]: 1 ng/mL
IC50, pseudovirus neutralization [13]: 5 ng/mL
IC50, pseudovirus neutralization [14]: 3 ng/mL
IC50, pseudovirus neutralization [15]: > 50000 ng/mL
IC50, pseudovirus neutralization [16]: 1740 ng/mL
IC50, pseudovirus neutralization [17]: 0.8 ng/mL
IC50, pseudovirus neutralization [18]: 1 ng/mL
IC50, pseudovirus neutralization [19]: 2 ng/mL
IC50, pseudovirus neutralization [20]: 0.9 ng/mL
IC50, pseudovirus neutralization [21]: 3 ng/mL
IC50, pseudovirus neutralization [22]: 2 ng/mL
IC50, pseudovirus neutralization [23]: 3 ng/mL
IC50, pseudovirus neutralization [24]: > 50000 ng/mL
IC50, pseudovirus neutralization [25]: 16 ng/mL
IC50, pseudovirus neutralization [26]: 3 ng/mL
IC50, pseudovirus neutralization [27]: > 50000 ng/mL
IC50, pseudovirus neutralization [28]: > 50000 ng/mL
IC50, pseudovirus neutralization [29]: 2 ng/mL
IC50, pseudovirus neutralization [30]: 1 ng/mL
IC50, pseudovirus neutralization [31]: 1 ng/mL
IC50, pseudovirus neutralization [32]: > 50000 ng/mL
IC50, pseudovirus neutralization [33]: 5 ng/mL
IC80, pseudovirus neutralization (M1) [34]: 3 ng/mL
IC80, pseudovirus neutralization (M2) [34]: 4 ng/mL
IC80, pseudovirus neutralization (M1) [35]: 89 ng/mL
IC80, pseudovirus neutralization (M2) [35]: 59 ng/mL
IC80, pseudovirus neutralization (M1) [36]: 2 ng/mL
IC80, pseudovirus neutralization (M2) [36]: 2 ng/mL
IC80, pseudovirus neutralization (M1) [37]: 34 ng/mL
IC80, pseudovirus neutralization (M2) [37]: 45 ng/mL
IC80, pseudovirus neutralization (M1) [38]: 2150 ng/mL
IC80, pseudovirus neutralization (M2) [38]: 6860 ng/mL
IC80, pseudovirus neutralization (M1) [39]: 2940 ng/mL
IC80, pseudovirus neutralization (M2) [39]: 2620 ng/mL
IC80, pseudovirus neutralization (M1) [40]: 40 ng/mL
IC80, pseudovirus neutralization (M2) [40]: 44 ng/mL
IC80, pseudovirus neutralization (M1) [41]: 2 ng/mL
IC80, pseudovirus neutralization (M2) [41]: 3 ng/mL
IC80, pseudovirus neutralization (M1) [42]: 4 ng/mL
IC80, pseudovirus neutralization (M2) [42]: 4 ng/mL
IC80, pseudovirus neutralization (M1) [43]: 47 ng/mL
IC80, pseudovirus neutralization (M2) [43]: 47 ng/mL
IC80, pseudovirus neutralization (M1) [44]: 6 ng/mL
IC80, pseudovirus neutralization (M2) [44]: 9 ng/mL
IC80, pseudovirus neutralization (M1) [45]: 3 ng/mL
IC80, pseudovirus neutralization (M2) [45]: 3 ng/mL
IC80, pseudovirus neutralization (M1) [46]: > 50000 ng/mL
IC80, pseudovirus neutralization (M2) [46]: > 50000 ng/mL
IC80, pseudovirus neutralization (M1) [47]: 5 ng/mL
IC80, pseudovirus neutralization (M2) [47]: 9 ng/mL
IC80, pseudovirus neutralization (M1) [48]: 6 ng/mL
IC80, pseudovirus neutralization (M2) [48]: 7 ng/mL
IC80, pseudovirus neutralization (M1) [49]: 140 ng/mL
IC80, pseudovirus neutralization (M2) [49]: 188 ng/mL
IC80, pseudovirus neutralization (M1) [50]: 24 ng/mL
IC80, pseudovirus neutralization (M2) [50]: 24 ng/mL

B2: ePGT121.18.17 (ePGT121.18.H17 VH and ePGT121.17.L1 VL) (antibody, V domains shown)
VH: QMQLQESGPGLVKPGETLSLTCSVSGASISSSYWSWLRETPGKGLEWIGYTHHSGDTNYAPSLKSRVTIGLDPSKNQVSLSLTSVTAADTAVYYCARTLHGRRIYGVVAFNEYYTYFYWPTWGKGTQVTVSS
VL: SDISVAPGETVRITCGGESIGSRAVQWYQHRPGQAPRLIIYNNQDRPPGIPERFSGSPDIDFGTTATLTISNVEAGDEATYYCHIWDSRRPTNWELGPGTTLTVL
IC50, pseudovirus neutralization [1]: 4 ng/mL
IC50, pseudovirus neutralization [2]: 9 ng/mL
IC50, pseudovirus neutralization [3]: 7 ng/mL
IC50, pseudovirus neutralization [4]: 62 ng/mL
IC50, pseudovirus neutralization [5]: 957 ng/mL
IC50, pseudovirus neutralization [6]: 4750 ng/mL
IC50, pseudovirus neutralization [7]: 4 ng/mL
IC50, pseudovirus neutralization [8]: 29 ng/mL
IC50, pseudovirus neutralization [9]: > 50000 ng/mL
IC50, pseudovirus neutralization [10]: 156 ng/mL
IC50, pseudovirus neutralization [11]: > 50000 ng/mL
IC50, pseudovirus neutralization [12]: 3 ng/mL
IC50, pseudovirus neutralization [13]: 8 ng/mL
IC50, pseudovirus neutralization [14]: 4 ng/mL
IC50, pseudovirus neutralization [15]: > 50000 ng/mL
IC50, pseudovirus neutralization [16]: 8910 ng/mL
IC50, pseudovirus neutralization [17]: 2 ng/mL
IC50, pseudovirus neutralization [18]: 4 ng/mL
IC50, pseudovirus neutralization [19]: 4 ng/mL
IC50, pseudovirus neutralization [20]: 2 ng/mL
IC50, pseudovirus neutralization [21]: 7 ng/mL
IC50, pseudovirus neutralization [22]: 8 ng/mL
IC50, pseudovirus neutralization [23]: 4 ng/mL
IC50, pseudovirus neutralization [24]: > 50000 ng/mL
IC50, pseudovirus neutralization [25]: 32 ng/mL
IC50, pseudovirus neutralization [26]: 14 ng/mL
IC50, pseudovirus neutralization [27]: > 50000 ng/mL
IC50, pseudovirus neutralization [28]: > 50000 ng/mL
IC50, pseudovirus neutralization [29]: 5 ng/mL
IC50, pseudovirus neutralization [30]: 3 ng/mL
IC50, pseudovirus neutralization [31]: 4 ng/mL
IC50, pseudovirus neutralization [32]: > 50000 ng/mL
IC50, pseudovirus neutralization [33]: 12 ng/mL
IC80, pseudovirus neutralization [34]: 8 ng/mL
IC80, pseudovirus neutralization [35]: 207 ng/mL
IC80, pseudovirus neutralization [36]: 3 ng/mL
IC80, pseudovirus neutralization [37]: 171 ng/mL
IC80, pseudovirus neutralization [38]: 32000 ng/mL
IC80, pseudovirus neutralization [39]: 10000 ng/mL
IC80, pseudovirus neutralization [40]: 269 ng/mL
IC80, pseudovirus neutralization [41]: 6 ng/mL
IC80, pseudovirus neutralization [42]: 8 ng/mL
IC80, pseudovirus neutralization [43]: 130 ng/mL
IC80, pseudovirus neutralization [44]: 19 ng/mL
IC80, pseudovirus neutralization [45]: 6 ng/mL
IC80, pseudovirus neutralization [46]: > 50000 ng/mL
IC80, pseudovirus neutralization [47]: 17 ng/mL
IC80, pseudovirus neutralization [48]: 14 ng/mL
IC80, pseudovirus neutralization [49]: 780 ng/mL
IC80, pseudovirus neutralization [50]: 65 ng/mL

B3: ePGT121.15.H2.L1 (antibody, V domains shown)
VH: QMQLQESGPGLVKPGETLSLTCSVSGASISSSYWSWLRETPGKGLEWIGYTHHSGDTNYAPSLKSRVHLGLHPSKNQVSLSLTSVTAADTAVYYCARTLHGRRIYGVVAFNEWFTYFYWEVWGKGTQVTVSS
VL: SDISVAPGETVRISCGGESIGSRAVQWYQHRAGQAPKLIIYNNQDRPPGIPERFSGSPDIDFGTTATLTITNVEAGDEATYYCHIWDSRRPTNWVFGGGTTLTVL
neutralization (Table 6 value) [44]: 0.00162
